Assay results: US20240228618A1 (Janssen / Centocor, published 2024)

Target: human CD123 (human, UniProt P26951 19-378)
Assay: cell-based or functional assay

human CD123, sequence (P26951 19-378): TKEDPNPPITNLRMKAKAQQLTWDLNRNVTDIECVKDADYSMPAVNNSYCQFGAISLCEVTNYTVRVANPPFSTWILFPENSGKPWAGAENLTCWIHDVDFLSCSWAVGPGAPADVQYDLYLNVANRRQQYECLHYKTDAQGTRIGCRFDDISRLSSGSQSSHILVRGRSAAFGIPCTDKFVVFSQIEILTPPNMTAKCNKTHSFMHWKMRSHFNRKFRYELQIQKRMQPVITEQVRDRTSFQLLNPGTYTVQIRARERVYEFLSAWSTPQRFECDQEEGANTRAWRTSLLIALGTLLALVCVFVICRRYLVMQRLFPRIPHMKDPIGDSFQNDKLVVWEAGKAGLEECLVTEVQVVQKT

B1: CD123×CD3 bispecific antibody (bispecific antibody, human IgG4 S228P, kappa, lambda, F234A L235A)
heavy 1: not shown
light 1: EIVLTQSPGTLSLSPGERATLSCRASQSVSSSYLAWYQQKPGQAPRLLIYGASSRATGIPDRFSGSGSGTDFTLTISRLEPEDFAVYYCQQDYGFPWTFGQGTKVEIKRTVAAPSVFIFPPSDEQLKSGTASVVCLLNNFYPREAKVQWKVDNALQSGNSQESVTEQDSKDSTYSLSSTLTLSKADYEKHKVYACEVTHQGLSSPVTKSFNRGEC
heavy 2: EVQLVESGGGLVQPGGSLKLSCAASGFTFNTYAMNWVRQASGKGLEWVGRIRSKYNAYATYYAASVKGRFTISRDDSKNTAYLQMNSLKTEDTAVYYCTRHGNFGNSYVSWFAYWGQGTLVTVSSASTKGPSVFPLAPCSRSTSESTAALGCLVKDYFPEPVTVSWNSGALTSGVHTFPAVLQSSGLYSLSSVVTVPSSSLGTKTYTCNVDHKPSNTKVDKRVESKYGPPCPPCPAPEAAGGPSVFLFPPKPKDTLMISRTPEVTCVVVDVSQEDPEVQFNWYVDGVEVHNAKTKPREEQFNSTYRVVSVLTVLHQDWLNGKEYKCKVSNKGLPSSIEKTISKAKGQPREPQVYTLPPSQEEMTKNQVSLTCLVKGFYPSDIAVEWESNGQPENNYKTTPPVLDSDGSFLLYSKLTVDKSRWQEGNVFSCSVMHEALHNHYTQKSLSLSLGK
light 2: QAVVTQEPSLTVSPGGTVTLTCRSSTGAVTTSNYANWVQQKPGQAPRGLIGGTNKRAPGTPARFSGSLLGGKAALTLSGAQPEDEAEYYCALWYSNLWVFGGGTKLTVLGQPKAAPSVTLFPPSSEELQANKATLVCLISDFYPGAVTVAWKADSSPVKAGVETTTPSKQSNNKYAASSYLSLTPEQWKSHRSYSCQVTHEGSTVEKTVAPTECS
EC50 of T cell-mediated cytotoxicity, target HL-60, HS-5 stroma, no anti-CD44, 48 h: 0.142 nM
EC50 of T cell-mediated cytotoxicity, target HL-60, HS-5 stroma, with anti-CD44, 48 h: 0.0762 nM
EC50 of T cell-mediated cytotoxicity, target HL-60, no stroma, no anti-CD44, 48 h: 0.0868 nM
EC50 of T cell-mediated cytotoxicity, target HL-60, no stroma, with anti-CD44, 48 h: 0.0808 nM
EC50 of T cell-mediated cytotoxicity, target KG-1, HS-5 stroma, no anti-CD44, 48 h: 0.0319 nM
EC50 of T cell-mediated cytotoxicity, target KG-1, HS-5 stroma, with anti-CD44, 48 h: 0.0265 nM
EC50 of T cell-mediated cytotoxicity, target KG-1, no stroma, no anti-CD44, 48 h: 0.0028 nM
EC50 of T cell-mediated cytotoxicity, target KG-1, no stroma, with anti-CD44, 48 h: 0.0009 nM
EC50 of T cell-mediated cytotoxicity, target MOLM-13, HS-5 stroma, no anti-CD44, 48 h: 0.0262 nM
EC50 of T cell-mediated cytotoxicity, target MOLM-13, HS-5 stroma, with anti-CD44, 48 h: 0.153 nM
EC50 of T cell-mediated cytotoxicity, target MOLM-13, no stroma, no anti-CD44, 48 h: 0.0362 nM
EC50 of T cell-mediated cytotoxicity, target MOLM-13, no stroma, with anti-CD44, 48 h: 0.0125 nM
EC50 of T cell-mediated cytotoxicity, target MV4-11, HS-5 stroma, no anti-CD44, 48 h: 0.0057 nM
EC50 of T cell-mediated cytotoxicity, target MV4-11, HS-5 stroma, with anti-CD44, 48 h: 0.0025 nM
EC50 of T cell-mediated cytotoxicity, target MV4-11, no stroma, no anti-CD44, 48 h: 0.0056 nM
EC50 of T cell-mediated cytotoxicity, target MV4-11, no stroma, with anti-CD44, 48 h: 0.0026 nM
EC50 of T cell-mediated cytotoxicity, target SKNO-1, HS-5 stroma, no anti-CD44, 48 h: 0.0757 nM
EC50 of T cell-mediated cytotoxicity, target SKNO-1, HS-5 stroma, with anti-CD44, 48 h: 0.108 nM
EC50 of T cell-mediated cytotoxicity, target SKNO-1, no stroma, no anti-CD44, 48 h: 0.0111 nM
EC50 of T cell-mediated cytotoxicity, target SKNO-1, no stroma, with anti-CD44, 48 h: 0.0077 nM
